In this assay the target is T1, LDLR (Homo sapiens, UniProt P01130).
T1 construct: expressed in transfected cells; host or cells: HEK293 (ATCC CRL-1573)
The assay is classed as binding.

We go through one substance from patent EP4467563A1 (priority 2023, dated 2024).

T1 sequence (P01130 22-860): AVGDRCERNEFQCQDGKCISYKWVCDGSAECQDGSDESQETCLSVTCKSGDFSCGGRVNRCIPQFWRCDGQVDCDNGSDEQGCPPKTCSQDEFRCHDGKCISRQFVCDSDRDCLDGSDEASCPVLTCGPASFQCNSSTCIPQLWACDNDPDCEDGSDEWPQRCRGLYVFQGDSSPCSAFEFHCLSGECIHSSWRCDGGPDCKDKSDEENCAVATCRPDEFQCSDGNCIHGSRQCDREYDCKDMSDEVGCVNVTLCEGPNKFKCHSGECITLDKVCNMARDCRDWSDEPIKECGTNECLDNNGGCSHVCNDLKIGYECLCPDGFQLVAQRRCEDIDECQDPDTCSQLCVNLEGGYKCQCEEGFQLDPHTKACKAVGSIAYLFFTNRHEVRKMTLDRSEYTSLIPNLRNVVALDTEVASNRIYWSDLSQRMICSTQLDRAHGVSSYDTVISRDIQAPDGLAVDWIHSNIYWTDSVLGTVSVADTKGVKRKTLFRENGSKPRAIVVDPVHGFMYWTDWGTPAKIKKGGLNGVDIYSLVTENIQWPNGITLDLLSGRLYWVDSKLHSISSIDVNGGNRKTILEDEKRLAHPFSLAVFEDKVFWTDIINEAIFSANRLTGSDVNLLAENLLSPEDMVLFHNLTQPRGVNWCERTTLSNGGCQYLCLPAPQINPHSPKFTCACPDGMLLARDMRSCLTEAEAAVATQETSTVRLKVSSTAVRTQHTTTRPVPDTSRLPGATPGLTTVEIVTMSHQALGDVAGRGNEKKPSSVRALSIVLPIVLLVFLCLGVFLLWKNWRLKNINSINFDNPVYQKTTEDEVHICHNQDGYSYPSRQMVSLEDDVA

Consider “BODIPY-FL-labelled LDL: BOPIDY FL complexed LDL purchased from ThermoFisher Scientific; fluorescent ligand for the BRET binding assay”, for which the “ligand-binding BRET signal (binding to LDLR)” value is reported as “concentration-dependent ligand-binding BRET signal”.
